Drawing on the RNAGym collection of RNA variant scans (doi:10.7554/elife.80360), this text covers self-cleavage for 167 variants.

The chains are these.
B1: Hammerhead Ribozyme (parent)
chain: ACCGGAUGUGCUUUCCGGUCUGAUGAGUCCGUGAGGACGAAACAG

This data set covers variants of B1. Nature of the data set: self-cleavage, relative activity (ratio to wild type); higher = more cleavage; co-transcriptional.
Consider C11A G25A, for which the self-cleavage turned out to be 0.342.

Turning to C11A G25U, the self-cleavage is 0.329.

As for C11A G22U, the self-cleavage is 0.246.

On to C11A G22C, for which the self-cleavage was 0.35.

Take C11A G22A: the self-cleavage was found to be 0.348.

For C11A A23G, the self-cleavage came to 0.371.

As for C11A A23C, the self-cleavage turned out to be 0.491.

For C11A A23U, the self-cleavage was found to be 0.401.

Regarding C11U C38A, the self-cleavage is 0.511.

For C11U C38G, the self-cleavage worked out at 0.611.

On to C11U C38U, for which the self-cleavage was 1.02.

On to G10U U28C, for which the self-cleavage is 1.18.

Regarding G10U U28A, the self-cleavage turned out to be 0.771.

Regarding G10U U28G, the self-cleavage amounted to 0.664.

As to C11G A37U, the self-cleavage was determined as 0.897.

Regarding C11G A37C, the self-cleavage was 1.11.

As for C11G A37G, the self-cleavage stood at 1.02.

As for C11U C15A, the self-cleavage came to 1.02.

With C11U C15G, the self-cleavage amounted to 1.04.

With C11U C15U, the self-cleavage turned out to be 1.18.

With C11A U24C, the self-cleavage is 1.13.

For the variant C11A U24G, the self-cleavage was 1.34.

On to C11A U24A, for which the self-cleavage amounted to 1.14.

Turning to G10U G17A, the self-cleavage worked out at 0.957.

Turning to G10U G17U, the self-cleavage was 0.848.

Consider G10U G17C, for which the self-cleavage was found to be 0.649.

On to C11A G33A, for which the self-cleavage stood at 1.22.

Turning to C11A G33U, the self-cleavage came to 1.21.

As to C11A G33C, the self-cleavage was 1.27.

As to C11U G22A, the self-cleavage is 0.382.

Take C11U G22C: the self-cleavage was 0.339.

On to C11U G22U, for which the self-cleavage turned out to be 0.341.

With C11G G31C, the self-cleavage amounted to 0.83.

Consider C11G G31A, for which the self-cleavage came out at 1.03.

For C11G G31U, the self-cleavage worked out at 1.34.

As to G10U U13G, the self-cleavage was determined as 0.674.

Turning to G10U U13C, the self-cleavage worked out at 1.11.

Regarding G10U U13A, the self-cleavage was found to be 1.48.

On to C11G A41C, for which the self-cleavage is 0.366.

For C11G A41U, the self-cleavage worked out at 0.382.

As for C11G A41G, the self-cleavage came to 0.413.

With C11G A44U, the self-cleavage stood at 0.648.

C11G A44G: the self-cleavage was determined as 1.8.

For the variant C11G A44C, the self-cleavage came to 0.769.

Take C11G A23G: the self-cleavage was 0.282.

Turning to C11G A23C, the self-cleavage was 0.549.

As to C11G A23U, the self-cleavage came to 0.41.

For C11U C43G, the self-cleavage came out at 0.392.

With C11U C43A, the self-cleavage came out at 0.36.

In the case of C11U C43U, the self-cleavage turned out to be 0.529.

Turning to C11A A37U, the self-cleavage is 0.633.

For C11A A37C, the self-cleavage came out at 1.12.

As to C11A A37G, the self-cleavage was found to be 1.28.

Turning to C11G U13C, the self-cleavage is 1.32.

C11G U13G: the self-cleavage stood at 1.11.

For C11G U13A, the self-cleavage amounted to 1.21.

Regarding C11U A26U, the self-cleavage is 0.64.

As for C11U A26G, the self-cleavage is 0.335.

With C11U A26C, the self-cleavage is 0.433.

On to C11G U19G, for which the self-cleavage came out at 0.42.

For C11G U19C, the self-cleavage worked out at 0.532.

For C11G U19A, the self-cleavage turned out to be 0.296.

As for C11U G35A, the self-cleavage came to 0.64.

With C11U G35C, the self-cleavage amounted to 0.588.

On to C11U G35U, for which the self-cleavage is 0.846.

As to C11A C15A, the self-cleavage worked out at 0.851.

As for C11A C15U, the self-cleavage came to 1.01.

In the case of C11A C15G, the self-cleavage is 1.15.

Consider C11A A41C, for which the self-cleavage was found to be 0.371.

Consider C11A A41G, for which the self-cleavage came to 0.364.

C11A A41U: the self-cleavage stood at 0.273.

For the variant G10U G36A, the self-cleavage was found to be 0.65.

For G10U G36U, the self-cleavage is 0.587.

With G10U G36C, the self-cleavage was found to be 0.929.

For C11U G18A, the self-cleavage was 0.428.

With C11U G18C, the self-cleavage was 0.319.

For C11U G18U, the self-cleavage came to 0.469.

As to G10U G45U, the self-cleavage was determined as 0.926.

With G10U G45C, the self-cleavage was found to be 0.828.

In the case of G10U G45A, the self-cleavage is 0.694.

With C11U G27A, the self-cleavage came to 0.666.

As to C11U G27U, the self-cleavage was found to be 0.487.

On to C11U G27C, for which the self-cleavage is 0.58.

For C11G A42G, the self-cleavage was 0.303.

For the variant C11G A42U, the self-cleavage stood at 0.326.

In the case of C11G A42C, the self-cleavage was found to be 0.422.

For the variant C11G G22U, the self-cleavage turned out to be 0.378.

On to C11G G22A, for which the self-cleavage stood at 0.304.

Regarding C11G G22C, the self-cleavage stood at 0.338.

On to G10U G31C, for which the self-cleavage was 0.998.

Take G10U G31A: the self-cleavage is 0.989.

In the case of G10U G31U, the self-cleavage was determined as 0.736.

With C11A A40U, the self-cleavage came to 0.29.

As to C11A A40C, the self-cleavage came to 0.587.

For C11A A40G, the self-cleavage worked out at 0.346.

On to C11G C16G, for which the self-cleavage is 0.999.

On to C11G C16U, for which the self-cleavage amounted to 1.23.

Consider C11G C16A, for which the self-cleavage stood at 0.865.

For the variant C11A C38G, the self-cleavage was found to be 0.881.

In the case of C11A C38A, the self-cleavage amounted to 0.892.

Take C11A C38U: the self-cleavage amounted to 1.1.

For the variant C11A U12A, the self-cleavage was found to be 0.977.

With C11A U12G, the self-cleavage worked out at 1.61.

Consider C11A U12C, for which the self-cleavage is 1.08.

On to C11G C30U, for which the self-cleavage amounted to 1.28.

Turning to C11G C30A, the self-cleavage was determined as 1.26.

With C11G C30G, the self-cleavage is 1.22.

Turning to G10U G18A, the self-cleavage was determined as 0.836.

Regarding G10U G18U, the self-cleavage turned out to be 0.877.

On to G10U G18C, for which the self-cleavage turned out to be 0.682.

Consider C11U A40C, for which the self-cleavage came to 0.438.

For C11U A40U, the self-cleavage came to 0.296.

For the variant C11U A40G, the self-cleavage was found to be 0.342.

Turning to C11G G27C, the self-cleavage stood at 0.938.

In the case of C11G G27A, the self-cleavage was 0.839.

On to C11G G27U, for which the self-cleavage amounted to 0.527.

Consider C11A U21C, for which the self-cleavage turned out to be 0.848.

As to C11A U21G, the self-cleavage was 0.713.

For the variant C11A U21A, the self-cleavage was determined as 0.895.

As to C11U G17U, the self-cleavage was determined as 0.405.

As to C11U G17A, the self-cleavage was found to be 0.475.

Take C11U G17C: the self-cleavage turned out to be 0.43.

For the variant C11U A34G, the self-cleavage amounted to 0.83.

As to C11U A34U, the self-cleavage was found to be 0.724.

For C11U A34C, the self-cleavage worked out at 0.584.

For the variant G10U G25C, the self-cleavage was 0.375.

Take G10U G25U: the self-cleavage was found to be 0.314.

Regarding G10U G25A, the self-cleavage was 0.313.

Regarding C11U C29G, the self-cleavage was 0.646.

Regarding C11U C29U, the self-cleavage stood at 0.897.

As for C11U C29A, the self-cleavage was 0.329.

Consider C11G G35C, for which the self-cleavage is 0.668.

As for C11G G35A, the self-cleavage turned out to be 1.02.

Consider C11G G35U, for which the self-cleavage worked out at 0.957.

For C11G C20A, the self-cleavage stood at 0.477.

For the variant C11G C20G, the self-cleavage was 0.261.

For C11G C20U, the self-cleavage stood at 0.695.

On to C11A U32C, for which the self-cleavage was found to be 1.06.

Take C11A U32G: the self-cleavage turned out to be 1.01.

With C11A U32A, the self-cleavage came to 1.4.

On to C11U C20U, for which the self-cleavage came to 0.544.

As for C11U C20A, the self-cleavage came out at 0.441.

As for C11U C20G, the self-cleavage was 0.327.

In the case of C11U, the self-cleavage came out at 1.02.

For C11G, the self-cleavage was 1.12.

For C11A, the self-cleavage worked out at 1.12.

Take C11G G36C: the self-cleavage was 0.998.

For C11G G36A, the self-cleavage was 0.763.

In the case of C11G G36U, the self-cleavage was 0.69.

Consider C11A U28A, for which the self-cleavage was found to be 1.04.

Turning to C11A U28C, the self-cleavage turned out to be 1.1.

For C11A U28G, the self-cleavage amounted to 0.964.

For the variant G10U G39C, the self-cleavage was determined as 0.379.

Regarding G10U G39U, the self-cleavage stood at 0.313.

On to G10U G39A, for which the self-cleavage worked out at 0.405.

For the variant C11A G39C, the self-cleavage turned out to be 0.438.

As to C11A G39A, the self-cleavage was 0.303.

For the variant C11A G39U, the self-cleavage was 0.29.

In the case of C11A G36U, the self-cleavage is 0.762.

On to C11A G36C, for which the self-cleavage amounted to 0.911.

Consider C11A G36A, for which the self-cleavage was determined as 0.847.

Take C11G U24G: the self-cleavage was 1.3.

In the case of C11G U24C, the self-cleavage worked out at 1.07.

As to C11G U24A, the self-cleavage came out at 0.829.

C11G A26C: the self-cleavage came out at 0.725.

With C11G A26U, the self-cleavage was determined as 1.05.

For the variant C11G A26G, the self-cleavage was found to be 0.393.
